Assay results from patent publication US20110086026A1 (ROCHE PALO ALTO, published 2011).
Numbering of substitutions follows the chain as printed.

T1: hIL-13Rα1:hFc chimeric protein (R&D Systems, UK) (human, UniProt P78552 22-343)
T1 construct: extracellular domain; Bought; also called chimeric hIL-13Rα1:hFc; not shown: human Fc (hFc) of the bought chimera
T1 sequence (looked up): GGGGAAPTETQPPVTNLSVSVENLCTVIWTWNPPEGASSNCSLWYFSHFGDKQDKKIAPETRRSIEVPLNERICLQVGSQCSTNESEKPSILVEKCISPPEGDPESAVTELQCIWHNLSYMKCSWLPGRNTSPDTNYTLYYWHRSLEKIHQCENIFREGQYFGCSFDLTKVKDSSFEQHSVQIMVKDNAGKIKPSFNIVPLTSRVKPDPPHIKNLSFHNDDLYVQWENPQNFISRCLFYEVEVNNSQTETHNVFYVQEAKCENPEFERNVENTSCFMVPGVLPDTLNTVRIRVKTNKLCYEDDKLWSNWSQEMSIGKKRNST

T2: extracellular domain of IL-13Rα1 (R&D Systems, UK) (human, UniProt P78552 22-343)
T2 construct: extracellular domain; Bought; also called recombinant human IL-13Rα1 polypeptide; immobilized extracellular domains of human IL-13Rα1
T2 sequence (looked up): T1 sequence (looked up)

B1: HuMab LC5002-002 (antibody, human IgG1, V domains shown)
VH: EVQLLESGGGLVQPGGSLRLSCAASGFTFNIYAMNWVRQAPGKGLEWVSVISGRGITTYYADSVKGRFTISRDNSKNTLYLQMNSLRADDTAVYYCAKGSSSWTDFDYWGQGTLVTVSS
VL: DIQMTQSPSSLSASVGDRVTITCRASQGISRWVAWYQQKPEKAPKSLIYAASSLQSGVPSRFSGSGSGTDFTLTISSLQPEDFATYYCQQYNSYPWTFGQGTKVEIK
notes: Human IgG1 kappa from a HuMab mouse hybridoma; Only the variable domains are tied to this antibody; also called hu-MAB<h-IL-13R alpha>LC.5002-002 (DSM ACC2709)
B2: HuMab LC5002-003 (antibody, V domains shown)
VH: B1 VH with G10D, V12I, N84D, D89E, S102Y
VL: B1 VL with R31S, V33L
notes: Human IgG1 kappa from a HuMab mouse hybridoma; Only the variable domains are tied to this antibody; also called LC50002-003; hu-MAB<h-IL-13Ralpha>LC.5002-003 (DSM ACC2710)
B3: HuMab LC5002-007 (antibody, human IgG1, V domains shown)
VH: QVQLVQSGAEVKKPGSSVKVSCKVSGGTFSSYAFSWVRQAPGQGLEWMGRIIPILGRTNYAQKFQGRVTITADKSTSTAYMEVSSLRSEDTAVYYCAREGETLDYFYYGMDVWGQGTTVTVSS
VL: EIVLTQSPGTLSLSPGERATLSCRASQSVSSSYLAWYQQKPGQAPRLLIYGASSRAIGIPDRFSGSGSGTDFTLTISRLEPEDFAVYYCQHYGSSLTFGGGTKVEIK
notes: Human IgG1 kappa from a HuMab mouse hybridoma; Only the variable domains are tied to this antibody; also called hu-MAB<h-IL-13R alpha>LC.5002-007 (DSM ACC2712)
B4: HuMab LC5002-005 (antibody, V domains shown)
VH: EVQVLDSGGGLVQPGGSLRLSCTASGFTFRLYTMSWVRQTPGRGLEWVSGISGSGLSTYFADSVKGRFTISRDNSKNTVYLQMNSLRAEDTAVYYCAKEGDWIYFDSWGQGTLVIVSS
VL: B1 VL with R31S, V33L, Y94H, W96P, V104L
notes: Only the variable domains are tied to this antibody; also called hu-MAB<h-IL-13Ralpha>LC.5002-005 (DSM ACC2711)

Target: T1, hIL-13Rα1:hFc chimeric protein (R&D …)
Test: competition ELISA: hIL-13Rα1:hFc coated, antibody first, then IL-13 plus IL-4Rα; bound IL-13 detected with biotinylated anti-IL-13
Experimental: Microtiter plates were coated with 100 μl hIL-13Rα1:hFc chimeric protein (R&D Systems, UK) in PBS at 3 μg/ml at 4° C. overnight on a shaker. After washing the plates with WB, serially diluted HuMab and control antibodies (100 μl/well; dilutions in IB) were added and incubated for 30 min at RT. The plates were again washed, and then a mixture of IL-13 (R&D Systems, UK; 0.5 μg/ml; dilution with IB) and IL-4Rα (R&D Systems, UK; 0.75 μg/ml; dilution with IB) were added and incubated for 1 h at RT. After washing the plates 100 μl biotinylated anti IL-13 antibody (BAF213; R&D Systems, UK) in a concentration of 0.4 μg/ml was added and incubated for 1 h at RT. After washing the plates, bound IL-13 was detected by peroxidase-coupled streptavidin (Roche Diagnostics GmbH, DE) in a dilution of 1:5000 in IB (incubation period 1 h at RT). Finally, plates were washed and developed with ready-to-use ABTS® solution (Roche Diagnostics GmbH, DE) at room temperature (RT) in the dark. Absorbance was measured at 405 nm after 45 to 60 minutes.

Row | IC50 (read off the curve) | Binder
1 | 1 to 2.5 nM | B1
2 | ~2 nM | B2
3 | ~1 nM | B3

Target: T2, extracellular domain of IL-13Rα1 (R&D …)
Test: ELISA, immobilized extracellular domain of human IL-13Rα1, detection with anti-human kappa-POD, OD 405nm-492nm
Experimental: To determine the ability of the antibodies of the invention to bind to recombinant IL-13Rα1, the extracellular domain of IL-13Rα1 (R&D Systems, UK) was dissolved in PBS (1 μg/ml) and allowed to adsorb to microtiter plates (NUNC Maxisorb) by incubation over night at 4° C. After washing the plates with washing buffer (WB=0.9% NaCl; 0.1% Tween® 20) unspecific binding sites were blocked by addition of 100 μl incubation buffer (IB=PBS with 1% crotein C and 0.1% Tween® 20) and incubation for 30 min at room-temperature (RT). Then, serially diluted HuMab and control antibodies (100 μl/well; dilutions in IB) were added and incubated for 1 hour at RT. The plates were again washed, and bound human antibodies were detected by incubation with peroxidase-conjugated rabbit anti-human kappa (DAKO, Denmark) in a final dilution of 1:500 in IB. Polyclonal goat anti-hIL-13Rα1 antibodies were detected with peroxidase-conjugated polyclonal donkey anti-goat IgG (Santa Cruz; dilution 1:1000 in IB). After incubation for 1 h at RT and a subsequent washing step, the plates were developed with ready-to-use ABTS® solution (Roche Diagnostics GmbH) at RT in the dark. Absorbance was measured at 405 nm after absorbance of the highest concentration reached a sufficient OD.

Row | EC50 (read off the curve) | Binder
4 | ~1 nM | B4
5 | ~1 nM | B1
6 | 1 to 2 nM | B2
7 | ~0.8 nM | B3

Target: T1, hIL-13Rα1:hFc chimeric protein (R&D …)
Test: SPR Biacore 3000, HuMab captured by anti-hFcγ, hIL-13Rα1:hFc as analyte, 1:1 Langmuir model
Experimental: For interaction analysis a Biacore 3000 instrument was used. As running and reaction buffer, HBS-P (10 mM HEPES, 150 mM NaCl, 0.005% polysurfactant P, pH 7.4) at 25° C. was used. Capturing molecules (goat anti-human-IgG, Fcγ specifc) were amine-coupled at a concentration of 20 μg/ml at a flow rate of 5 μl/min for 20 minutes. HuMabs were injected at a concentration of 1 μg/ml at a flow rate of 10 μl/min for 1 minute. Blocking of the free goat anti human IgG, Fcγ was achieved by injecting human gamma globulin at 500 nM and 30 μl/min for 3 minutes. Analyte (hIL-13Rα1:hFc chimeric protein) was injected for two minutes at five concentrations between 5.63 nM and 90 nM and washed with HBS-P for five minutes. Regeneration of the surface was accomplished by two injections of 100 mM HCl for 1 min each. The chip, assay format and sequence of injections and kinetic data correspond to the description in table 2. Negative control data (e.g. buffer curves) were subtracted from sample curves for correction of system intrinsic baseline drift and for noise signal reduction. BiaEvaluation version 4.01 was used for analysis of sensorgrams and for calculation of affinity data. Kinetic data were calculated by fitting kinetic data to a 1:1 Langmuir binding model (Table 2).

Row | Kd | koff | kon | Binder
8 | 0.018 nM | 3.12e-06 s⁻¹ | 173000 M⁻¹ s⁻¹ | B4
9 | < 0.0065 nM | 1.4e-06 s⁻¹ | 210000 M⁻¹ s⁻¹ | B2
10 | < 0.0084 nM | 1e-06 s⁻¹ | 119000 M⁻¹ s⁻¹ | B3
